Measured values as given in paper doi:10.1101/2023.06.17.545066 (bioRxiv, 2023).

Target: the molecule itself
Test: SEC

B1: EcL-TTD αβ heterodimer (complex)
chain 1: MMSESNKQQAVNKLTEIVANFTAMISTRMPDDVVDKLKQLKDAETSSMGKIIYHTMFDNMQKAIDLNRPACQDTGEIMFFVKVGSRFPLLGELQSILKQAVEEATVKAPLRHNAVEIFDEVNTGKNTGSGVPWVTWDIIPDNDDAEIEVYMAGGGCTLPGRSKVLMPSEGYEGVVKFVFENISTLAVNACPPVLVGVGIATSVETAAVLSRKAILRPIGSRHPNPKAAELELRLEEGLNRLGIGPQGLTGNSSVMGVHIESAARHPSTIGVAVSTGCWAHRRGTLLVHADLTFENLSHTRSAL
chain 2: MKKILTTPIKAEDLQDIRVGDVIYLTGTLVTCRDVCHRRLIELKRPIPYDLNGKAIFHAGPIVRKNGDKWEMVSVGPTTSMRMESFEREFIEQTGVKLVVGKGGMGPLTEEGCQKFKALHVIFPAGCAVLAATQVEEIEEVHWTELGMPESLWVCRVKEFGPLIVSIDTHGNNLIAENKKLFAERRDPIVEEICEHVHYIK
B1 was tested. Which “stoichiometry N” value did it give?
Its value is 2.
